Data published in the RNAGym collection of RNA variant scans (doi:10.7554/elife.80360).

B1: Hammerhead Ribozyme (parent)
chain: ACCGGAUGUGCUUUCCGGUCUGAUGAGUCCGUGAGGACGAAACAG

Variants of: B1
Experiment: self-cleavage, relative activity (ratio to wild type); higher = more cleavage; co-transcriptional

Variant | self-cleavage
ACCGGAUGUGCUUUCCGGUCUGAUGAGUCCGAGAGGGCGAAACAG [U32A A37G] | 1.16
ACCGGAUGUGCUUUCCGGUCUGAUGAGUCCGUGAGGAAGAAAAAG [C38A C43A] | 0.335
ACCGGACGUGCUAUCCGGUCUGAUGAGUCCGUGAGGACGAAACAG [U7C U13A] | 1.22
ACCGGAUGUGCUUUCCGGUCUUAUGAGUCCGUGAGGACGAAACAC [G22U G45C] | 0.348
ACCGGAUGUGCUUUCCGGUCUGAUGAGGCGGUGAGGACGAAACAG [U28G C30G] | 0.315
ACCGGAUGUGCUUUCCGGUCUGAUGAGUCCGAGUGGACGAAACAG [U32A A34U] | 1.04
ACCGGAUGUGCUUUCCGGUCUGAUGAGACCGUGAGGACGAAAUAG [U28A C43U] | 0.381
ACCGGAUGUGCUUUCCGGUCUGAUGAGUCCGUGUGGACGAAGCAG [A34U A42G] | 0.258
CCCGGAUGUGCUUUCCGGUUUGAUGAGUCCGUGAGGACGAAACAG [A1C C20U] | 0.376
ACCUGAUGUGCUUUCCGGUCUGAUGAGUCCGUGAGGACGAAACUG [G4U A44U] | 0.33
ACGGGAUGUGCUUUCCGGUCUGAUGAAUCCGUGAGGACGAAACAG [C3G G27A] | 0.317
ACCGGAUUUGCUUUCCGGUCUGAUGAGUCCGUGAGGACGCAACAG [G8U A40C] | 0.566
ACGGGAUGUGCUUUCCGGUCUGAUGAGUCCGUGAGUACGAAACAG [C3G G36U] | 0.278
ACCGGAUGUGCUUUCCGGUCUGUUGAGUCCGUGAGGACGAAACAC [A23U G45C] | 0.42
ACCGUAUGUGCUUUCCGGUCGGAUGAGUCCGUGAGGACGAAACAG [G5U U21G] | 0.419
ACCGGAUGUGCUUUCCGGUCAGAUGAGUCCGUGCGGACGAAACAG [U21A A34C] | 0.439
ACCGGAAGUGCUUUCCGGUGUGAUGAGUCCGUGAGGACGAAACAG [U7A C20G] | 0.376
ACCGGAUCUGCUUUCCGGUCUGAUGGGUCCGUGAGGACGAAACAG [G8C A26G] | 0.278
ACCGGAUCUGCUUUCCGGUCUGAUGCGUCCGUGAGGACGAAACAG [G8C A26C] | 0.434

Variant | self-cleavage
ACCGGAUGUGCUUUCCGCUCUGAUGAGUCCGCGAGGACGAAACAG [G18C U32C] | 0.446
GCCGGAUGUGCUUUCCGGUCUGAUGUGUCCGUGAGGACGAAACAG [A1G A26U] | 0.971
ACCGGAUGUGCUUUCCGGUCUGCUGAGUCCGUGAGGGCGAAACAG [A23C A37G] | 0.237
ACCGGAUGUGCUUUCCGGUCUGAUGAGUCCGUGAGGAUGACACAG [C38U A41C] | 0.32
ACCGGAUGUGCUUUCCGGUCUGAUGGGUUCGUGAGGACGAAACAG [A26G C29U] | 0.365
ACCGGAAGUGCUUUCCGUUCUGAUGAGUCCGUGAGGACGAAACAG [U7A G18U] | 0.569
ACCGGAUGUGCUUUCCGGUCUGAUGAUUCCGUGAGGACGAAACUG [G27U A44U] | 0.349
ACCGGAUGUGCUUUCCGGUCUGAUGAGUUCCUGAGGACGAAACAG [C29U G31C] | 0.673
ACCGGAUGUGCUUUCCCGUCUGAUGAGUCUGUGAGGACGAAACAG [G17C C30U] | 0.545
ACUGGAUGUGCUUUCCGGUCUGAUGAUUCCGUGAGGACGAAACAG [C3U G27U] | 0.554
ACCGGAUGGGCUUUCCGGUCUGAUGAGACCGUGAGGACGAAACAG [U9G U28A] | 0.833
ACCGGAUGUGCUUUCCGGUCUGAUGAGUCCGUGAGGUCGAAGCAG [A37U A42G] | 0.271
ACCGGAUGUGCUUUCCGGUCUGAUGAGUCAGUGAGGACGAAACAU [C30A G45U] | 0.545
ACCGGAUGUGCUUUCCGGGCUGAUGAGUCAGUGAGGACGAAACAG [U19G C30A] | 0.376
ACCGUAUGUGCUGUCCGGUCUGAUGAGUCCGUGAGGACGAAACAG [G5U U13G] | 1.02
ACCGGAUGGGCUUUCCGGUCUGAUGAGUGCGUGAGGACGAAACAG [U9G C29G] | 0.534
ACCGGAUCUGCUUUCCGGUCUGAUGAGUCGGUGAGGACGAAACAG [G8C C30G] | 0.886
ACCGGAUGUGCUUUCCGGUCUGAUGAAUGCGUGAGGACGAAACAG [G27A C29G] | 0.412
ACCGGAUGUGCCUUCCGGUCUGAUGGGUCCGUGAGGACGAAACAG [U12C A26G] | 0.308

Variant | self-cleavage
ACCGGAUGUGCCUUCCGGUCUGAUGCGUCCGUGAGGACGAAACAG [U12C A26C] | 0.505
ACCGGAUGUGCUUUCCGGUCUCAUGAGUCCGUGAGGACGAUACAG [G22C A41U] | 0.416
ACCGGAUGUGCUAUCCGGUCUGAUGAGUCCCUGAGGACGAAACAG [U13A G31C] | 1.39
ACUGGAUUUGCUUUCCGGUCUGAUGAGUCCGUGAGGACGAAACAG [C3U G8U] | 0.945
ACCGGAUGUGCUUUCCGAUCUGAUGAGUCCGUGAGGUCGAAACAG [G18A A37U] | 0.55
ACCGGAUGUGAUUUCCGUUCUGAUGAGUCCGUGAGGACGAAACAG [C11A G18U] | 1.04
ACCGGAUGGGCUUUCCGGUCUGAUGAGUCCGUGAGGGCGAAACAG [U9G A37G] | 0.983
ACCGGAUGUGCUUUCCGAUAUGAUGAGUCCGUGAGGACGAAACAG [G18A C20A] | 0.326
ACGGCAUGUGCUUUCCGGUCUGAUGAGUCCGUGAGGACGAAACAG [C3G G5C] | 0.268
ACCGAAUGUGCUUUCCGGUCUGAUGAGUCCGUGAGGACGGAACAG [G5A A40G] | 0.379
ACCGGAUGUGCUUUCCGGUCUGAUUACUCCGUGAGGACGAAACAG [G25U G27C] | 0.285
ACCGGAUGUGCAUUCCGGUCUGCUGAGUCCGUGAGGACGAAACAG [U12A A23C] | 0.366
ACCGGAUGUGCUUUCCGGUCUGAUGAGUCUGUGAGGACGUAACAG [C30U A40U] | 0.345
ACCGGAUGUGCGUUCCGUUCUGAUGAGUCCGUGAGGACGAAACAG [U12G G18U] | 0.998
GCCGGAUGUGCUUUCCGGUCUGAUUAGUCCGUGAGGACGAAACAG [A1G G25U] | 0.353
ACCGGAUGUGCUUUCCGGUCUGAUGAGUCCGAGAGGACGAAAAAG [U32A C43A] | 0.347
AGCGGAAGUGCUUUCCGGUCUGAUGAGUCCGUGAGGACGAAACAG [C2G U7A] | 0.364
ACCGGGUGUGCUUUCCGGUCUGAUGAGUCCGAGAGGACGAAACAG [A6G U32A] | 0.968
ACCGGAUGUGCUUUCCGGUCUGAUGAGUCCGUGAGGAUCAAACAG [C38U G39C] | 0.584
